Data on two molecules can be found in publication PMC10397247.

In one experiment the target is T1, P9.
T1 chain: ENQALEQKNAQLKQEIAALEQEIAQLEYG
Put plainly: two-hybrid library CC1.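 Note: natural log of median RNA to DNA barcode read ratio; higher means stronger binding.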 The conditions noted are these: mean of both orientations.

Another experiment addresses T2, P7mS.
T2 chain: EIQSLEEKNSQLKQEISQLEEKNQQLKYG
Nature of the experiment: two-hybrid library CC1.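 Note: natural log of median RNA to DNA barcode read ratio; higher means stronger binding.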 The conditions noted are these: mean of both orientations.

In another experiment the target is T3, P7.
T3 chain: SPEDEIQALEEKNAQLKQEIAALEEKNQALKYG
Nature of the experiment: two-hybrid library CC1.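 Note: natural log of median RNA to DNA barcode read ratio; higher means stronger binding.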 The conditions noted are these: mean of both orientations.

In a further experiment the target is T4, P8.
T4 chain: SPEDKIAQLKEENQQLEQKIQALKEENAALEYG
Put plainly: two-hybrid library CC1.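 Note: natural log of median RNA to DNA barcode read ratio; higher means stronger binding.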 The conditions noted are these: mean of both orientations.

For the next experiment, the target named is T5, P8mS.
T5 chain: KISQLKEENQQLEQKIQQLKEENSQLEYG
Put plainly: two-hybrid library CC1.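 Note: natural log of median RNA to DNA barcode read ratio; higher means stronger binding.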 The conditions noted are these: mean of both orientations.

A further experiment addresses T6, P6SC2.
T6 chain: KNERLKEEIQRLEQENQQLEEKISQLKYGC
Nature of the experiment: two-hybrid library CC1.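 Note: natural log of median RNA to DNA barcode read ratio; higher means stronger binding.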 The conditions noted are these: mean of both orientations.

A further experiment deals with T7, P6SC1.
T7 chain: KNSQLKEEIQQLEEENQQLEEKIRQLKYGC
Put plainly: two-hybrid library CC1. The conditions noted are these: mean of both orientations.

The target in another experiment is T8, P6.
T8 chain: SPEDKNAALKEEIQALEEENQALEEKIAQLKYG
Nature of the experiment: two-hybrid library CC1.

The next experiment deals with T9, P6mS.
T9 chain: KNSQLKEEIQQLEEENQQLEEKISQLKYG
Nature of the experiment: two-hybrid library CC1. The conditions noted are these: mean of both orientations.

The target of the next experiment is T10, 4H687-bA.
T10 chain: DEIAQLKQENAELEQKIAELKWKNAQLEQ
Nature of the experiment: two-hybrid library CCNG1.

The next experiment deals with T11, 4H3189-bA.
T11 chain: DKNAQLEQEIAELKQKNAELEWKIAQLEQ
Put plainly: two-hybrid library CCNG1.

A further experiment concerns the target T12, 4H568-bA.
T12 chain: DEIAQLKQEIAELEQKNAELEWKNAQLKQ
Put plainly: two-hybrid library CCNG1.

The next experiment deals with T13, 4H4001-bA.
T13 chain: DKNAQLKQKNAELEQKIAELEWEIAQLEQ
Nature of the experiment: two-hybrid library CCNG1.

In the next experiment the target is T14, 4H953-bA.
T14 chain: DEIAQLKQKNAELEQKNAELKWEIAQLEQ
Put plainly: two-hybrid library CCNG1.

A further experiment addresses T15, 4H462-bA.
T15 chain: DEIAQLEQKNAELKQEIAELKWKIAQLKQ
Nature of the experiment: two-hybrid library CCNG1.

A further experiment concerns the target T16, 4H3843-bA.
T16 chain: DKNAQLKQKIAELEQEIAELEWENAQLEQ
Nature of the experiment: two-hybrid library CCNG1.

The target of the next experiment is T17, 4H607-bA.
T17 chain: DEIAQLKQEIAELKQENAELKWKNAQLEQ
Nature of the experiment: two-hybrid library CCNG1.

A further experiment deals with T18, 4H331-bA.
T18 chain: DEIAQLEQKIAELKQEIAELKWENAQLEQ
Put plainly: two-hybrid library CCNG1.

The target in another experiment is T19, 4H370-bA.
T19 chain: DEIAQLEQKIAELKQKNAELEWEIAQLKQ
Nature of the experiment: two-hybrid library CCNG1.

A further experiment has as its target T20, 4H967-bA.
T20 chain: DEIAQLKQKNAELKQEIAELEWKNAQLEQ
Nature of the experiment: two-hybrid library CCNG1.

The target of the next experiment is T21, 4H883-bA.
T21 chain: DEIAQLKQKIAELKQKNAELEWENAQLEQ
Put plainly: two-hybrid library CCNG1.

In another experiment the target is T22, 4H3782-bA.
T22 chain: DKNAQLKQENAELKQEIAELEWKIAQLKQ
Put plainly: two-hybrid library CCNG1.

The target in another experiment is T23, 4H72-bA.
T23 chain: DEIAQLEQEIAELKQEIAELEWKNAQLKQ
Nature of the experiment: two-hybrid library CCNG1.

The target in another experiment is T24, 4H918-bA.
T24 chain: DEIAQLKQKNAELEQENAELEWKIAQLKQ
Nature of the experiment: two-hybrid library CCNG1.

For another experiment, the target named is T25, 4H797-bA.
T25 chain: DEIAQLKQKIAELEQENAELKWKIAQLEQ
Put plainly: two-hybrid library CCNG1.

Another experiment deals with T26, 4H3606-bA.
T26 chain: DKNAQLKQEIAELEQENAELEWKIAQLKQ
Nature of the experiment: two-hybrid library CCNG1.

Consider SPEDKNAALKEEIQALEEENQALEEKIAQLKYG [P6], for which the interaction score is -1.98 with P9; -2.6 with P7mS; -0.929 with P7; -2.37 in the experiment with P8; -2.62 in the experiment with P8mS; -2.56 with P6SC2. In addition, the interaction score in the experiment with P6SC1 is -2.74; with P6, -2.71; in the experiment with P6mS it was -2.76.
For DKNAQLEQEIAELKQKNAELEWKIAQLEQ [4H3189-bA], the interaction score is -0.444 in the experiment with 4H687-bA; 0.465 with 4H3189-bA; -1.19 with 4H568-bA; -0.765 with 4H4001-bA; -1.34 with 4H953-bA; -1.62 with 4H462-bA. The interaction score in the experiment with 4H3843-bA is -1.24; with 4H607-bA, -1.11; with 4H331-bA, -1.26; with 4H370-bA it was -0.547; with 4H967-bA it was -1.1; with 4H883-bA it was -1.22. Further, the interaction score with 4H3782-bA is -0.906; in the experiment with 4H72-bA, -1.18; in the experiment with 4H918-bA it was -1.44; with 4H797-bA, -1.42; in the experiment with 4H3606-bA, -0.875.
